Measurements as given in US20100098708A1.
Positions count from the first letter of the chain named. “And” between values parts separate entries of the source, which are not always exact repeats. Identical values can stand only once.

B1: H3-3F4 Fab (Fab, V domains shown)
VH: QVTLRESGPALVKPTQTLTLTCTFSGFSLSTAGMSVGWIRQPPGKALEWLADIWWDDKKDYNPSLKSRLTISKDTSKNQVVLKVTNMDPADTATYYCARDMIFNWYFDVWGQGTTVTVSS
VL: DIQMTQSPSTLSASVGDRVTITCSASSSVGYMHWYQQKPGKAPKLLIYDTFKLASGVPSRFSGSGSGTEFTLTISSLQPDDFATYYCFQGSGYPFTFGGGTKVEIK
B2: P12f4 Fab (Fab, V domains shown)
VH: B1 VH with A32P, D57G, D60H, S67D, W105F
VL: B1 VL with A25L, S28R, F51R, K52G, A54P
B3: DG (aka D95/G93) Fab (Fab, V domains shown)
VH: B1 VH with F103T, W105F
VL: B1 VL
B4: 6H8 Fab (Fab, V domains shown)
VH: B1 VH with F103T, W105F
VL: B1 VL with A54T
B5: Y10H6 Fab (Fab, V domains shown)
VH: B1 VH
VL: B1 VL with F51R, K52Y, A54S
B6: L1-7E5 Fab (Fab, V domains shown)
VH: B1 VH with F103T, W105F
VL: B1 VL with S28R
B7: M3H9 Fab (Fab, V domains shown)
VH: B1 VH
VL: B1 VL with F51Y, L53Q, A54T

Target: RSV F protein (immobilised antigen of Example 6.1) (respiratory syncytial virus)
Test: BIAcore

Chain of RSV F protein (immobilised antigen of Example 6.1) (respiratory syncytial virus) (P03420 26-524): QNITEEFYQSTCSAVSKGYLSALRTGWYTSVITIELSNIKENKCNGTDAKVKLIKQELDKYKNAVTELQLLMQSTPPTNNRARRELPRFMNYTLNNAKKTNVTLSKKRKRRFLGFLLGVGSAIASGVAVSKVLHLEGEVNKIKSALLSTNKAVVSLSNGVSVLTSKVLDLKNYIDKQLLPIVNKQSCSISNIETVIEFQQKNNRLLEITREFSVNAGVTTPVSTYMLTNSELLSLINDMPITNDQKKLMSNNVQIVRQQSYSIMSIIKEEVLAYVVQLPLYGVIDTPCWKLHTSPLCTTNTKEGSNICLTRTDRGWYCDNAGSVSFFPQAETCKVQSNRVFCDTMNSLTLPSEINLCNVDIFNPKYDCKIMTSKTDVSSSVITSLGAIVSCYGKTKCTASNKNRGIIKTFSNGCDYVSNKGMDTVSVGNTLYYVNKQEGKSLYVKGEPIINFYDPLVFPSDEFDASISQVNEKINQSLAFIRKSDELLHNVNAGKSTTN

| Binder | koff | kon |
| --- | --- | --- |
| B1 | 0.000445 s⁻¹ and 0.000402 s⁻¹ | – |
| B2 | 0.000299 s⁻¹ | 527000 M⁻¹ s⁻¹ |
| B3 | 0.000167 s⁻¹ and 0.000444 s⁻¹ | – |
| B4 | 0.000178 s⁻¹ and 0.000473 s⁻¹ | 314000 M⁻¹ s⁻¹ and 444000 M⁻¹ s⁻¹ |
| B5 | 0.000462 s⁻¹ | 757000 M⁻¹ s⁻¹ |
| B6 | 0.000192 s⁻¹ and 0.000331 s⁻¹ and 0.000229 s⁻¹ | – |
| B7 | 0.000338 s⁻¹ | 605000 M⁻¹ s⁻¹ |
